Results: publication PMC12376665

Target: SlAVT6A (split-ubiquitin bait fusion) (tomato (Solanum lycopersicum))
Sequence (main, as listed by the source): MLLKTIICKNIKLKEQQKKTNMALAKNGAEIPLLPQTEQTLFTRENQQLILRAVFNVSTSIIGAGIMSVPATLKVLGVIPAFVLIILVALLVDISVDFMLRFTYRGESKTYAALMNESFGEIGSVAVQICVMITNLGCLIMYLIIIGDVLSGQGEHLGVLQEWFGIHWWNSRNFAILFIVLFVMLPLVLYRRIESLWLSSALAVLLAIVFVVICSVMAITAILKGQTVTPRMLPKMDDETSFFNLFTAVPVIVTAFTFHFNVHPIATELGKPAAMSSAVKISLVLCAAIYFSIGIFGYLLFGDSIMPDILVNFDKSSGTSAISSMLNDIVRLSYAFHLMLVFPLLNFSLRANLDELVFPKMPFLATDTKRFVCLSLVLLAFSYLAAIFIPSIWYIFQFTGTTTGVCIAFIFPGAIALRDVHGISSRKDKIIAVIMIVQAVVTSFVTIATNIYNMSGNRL

amino acid content in the liquid culture of yeast co-expressing SlAVT6A and SlAVT6B, relative to SlAVT6A expressed alone: 21.8% | efflux activity for amino acids in yeast co-expressing SlAVT6A and SlAVT6B, compared to only SlAVT6A expressing: 65%
Substance: SlAVT6B (split-ubiquitin prey fusion) (from UniProt A0A3Q7FT69 1-472) (natural protein)
